Literature values in PMC2726620 (Journal of medicinal chemistry, 2008).
Non-standard residues stand in square brackets, D forms with d. Residues, ends and D or L forms follow the SMILES beside them. No end group written: not given here. *: point of attachment. Fmoc = O=C(OCC1c2ccccc2-c2ccccc21)*; NMePhg = CN[C@H](C(=O)O)c1ccccc1; Cha = N[C@@H](CC1CCCCC1)C(=O)O

Experiments:
[1] = target: mR1 dimer; settings: read-out: Ki for mR1 dimer; from directed minilibrary screening studies
[2] = target: T1, ScRR (Saccharomyces cerevisiae, UniProt P21524); settings: read-out: IC50, ScRR; footnote *: IC50 values were reported in [30]
T1 sequence (P21524 1-888): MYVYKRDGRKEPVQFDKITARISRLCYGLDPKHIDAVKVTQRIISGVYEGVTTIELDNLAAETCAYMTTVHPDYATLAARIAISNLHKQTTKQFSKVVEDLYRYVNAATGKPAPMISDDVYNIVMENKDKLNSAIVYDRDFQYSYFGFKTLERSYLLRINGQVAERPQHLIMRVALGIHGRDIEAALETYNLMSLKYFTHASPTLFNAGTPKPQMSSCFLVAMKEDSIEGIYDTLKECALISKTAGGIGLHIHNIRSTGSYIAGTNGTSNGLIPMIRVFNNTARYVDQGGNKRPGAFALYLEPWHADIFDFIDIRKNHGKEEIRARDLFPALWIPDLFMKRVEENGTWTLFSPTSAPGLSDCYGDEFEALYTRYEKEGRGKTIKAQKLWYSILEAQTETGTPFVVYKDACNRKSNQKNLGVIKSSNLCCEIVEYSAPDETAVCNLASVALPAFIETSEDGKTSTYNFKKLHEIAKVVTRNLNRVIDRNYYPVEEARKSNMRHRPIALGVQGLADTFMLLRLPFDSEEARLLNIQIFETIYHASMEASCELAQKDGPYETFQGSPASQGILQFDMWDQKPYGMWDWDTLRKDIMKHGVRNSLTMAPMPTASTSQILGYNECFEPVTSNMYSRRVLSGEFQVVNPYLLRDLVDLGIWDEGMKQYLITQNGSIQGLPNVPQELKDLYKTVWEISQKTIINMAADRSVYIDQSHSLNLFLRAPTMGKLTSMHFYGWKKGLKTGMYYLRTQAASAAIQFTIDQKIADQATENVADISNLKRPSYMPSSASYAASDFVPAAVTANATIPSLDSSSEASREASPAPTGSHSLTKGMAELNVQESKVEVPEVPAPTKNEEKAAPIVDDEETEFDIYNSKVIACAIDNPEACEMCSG

[3] = target: EcR2 20-mer peptide C-terminal 20-mer (Escherichia coli) (UniProt P69924)
[4] = target: EcR2 octapeptide C-terminal octapeptide (Escherichia coli) (UniProt P69924)
Sequence of EcR2 octapeptide C-terminal octapeptide (Escherichia coli) (P69924 whole entry, looked up): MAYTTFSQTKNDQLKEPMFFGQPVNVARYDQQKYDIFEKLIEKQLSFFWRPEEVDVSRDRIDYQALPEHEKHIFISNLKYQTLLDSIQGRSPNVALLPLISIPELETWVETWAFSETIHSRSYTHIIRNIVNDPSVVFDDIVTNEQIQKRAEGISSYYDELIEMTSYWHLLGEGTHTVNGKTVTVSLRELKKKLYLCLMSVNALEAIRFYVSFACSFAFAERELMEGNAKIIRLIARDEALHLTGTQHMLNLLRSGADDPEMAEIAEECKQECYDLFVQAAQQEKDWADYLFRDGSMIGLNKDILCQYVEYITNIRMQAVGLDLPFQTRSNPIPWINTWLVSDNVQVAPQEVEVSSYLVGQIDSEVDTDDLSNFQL

Sequence of EcR2 20-mer peptide C-terminal 20-mer (Escherichia coli) (P69924 357-376): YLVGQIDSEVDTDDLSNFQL

For `CC(C)C[C@H](NC(=O)[C@H](c1ccccc1)N(C)C(=O)OCC1c2ccccc2-c2ccccc21)C(=O)N[C@@H](CC(=O)O)C(=O)N[C@@H](CC1CCCCC1)C(=O)N[C@@H](CC(=O)O)C(=O)N[C@@H](Cc1ccccc1)C(=O)O` [P6, ^1Fmoc(Me)PhgLDChaDF^7] (Fmoc-[NMePhg]LD[Cha]DF-OH; C-terminus assumed), which Ki [1] is on record?
The Ki was 0.31 µM.

Which IC50 [2] does the source give for “^1FTFNEDF^7 (not fully specified; printed as 1FTFNEDF7) [ScR2]” here?
Its IC50 is 44 µM.

For “^2NFDDDF^7 (not fully specified; printed as 2NFDDDF7) [ScR4]”, which IC50 [2] is on record?
Its IC50 is 30 µM.

For “ribonucleotide reductase R1 (EcR1) (from UniProt P00452)”, which Ki [3] is on record?
The Ki was 20 µM.

What about the Ki [4] of the same molecule?
Its Ki is 370 µM.
